Results: publication doi:10.1101/2021.07.30.454553 (bioRxiv, 2021)

Target: T1, full-length human kinesin-1 heavy chain (KIF5B) (human, UniProt P33176 1-963, LD555, LD655 or Alexa488 label (imaging assays))
T1 sequence (looked up): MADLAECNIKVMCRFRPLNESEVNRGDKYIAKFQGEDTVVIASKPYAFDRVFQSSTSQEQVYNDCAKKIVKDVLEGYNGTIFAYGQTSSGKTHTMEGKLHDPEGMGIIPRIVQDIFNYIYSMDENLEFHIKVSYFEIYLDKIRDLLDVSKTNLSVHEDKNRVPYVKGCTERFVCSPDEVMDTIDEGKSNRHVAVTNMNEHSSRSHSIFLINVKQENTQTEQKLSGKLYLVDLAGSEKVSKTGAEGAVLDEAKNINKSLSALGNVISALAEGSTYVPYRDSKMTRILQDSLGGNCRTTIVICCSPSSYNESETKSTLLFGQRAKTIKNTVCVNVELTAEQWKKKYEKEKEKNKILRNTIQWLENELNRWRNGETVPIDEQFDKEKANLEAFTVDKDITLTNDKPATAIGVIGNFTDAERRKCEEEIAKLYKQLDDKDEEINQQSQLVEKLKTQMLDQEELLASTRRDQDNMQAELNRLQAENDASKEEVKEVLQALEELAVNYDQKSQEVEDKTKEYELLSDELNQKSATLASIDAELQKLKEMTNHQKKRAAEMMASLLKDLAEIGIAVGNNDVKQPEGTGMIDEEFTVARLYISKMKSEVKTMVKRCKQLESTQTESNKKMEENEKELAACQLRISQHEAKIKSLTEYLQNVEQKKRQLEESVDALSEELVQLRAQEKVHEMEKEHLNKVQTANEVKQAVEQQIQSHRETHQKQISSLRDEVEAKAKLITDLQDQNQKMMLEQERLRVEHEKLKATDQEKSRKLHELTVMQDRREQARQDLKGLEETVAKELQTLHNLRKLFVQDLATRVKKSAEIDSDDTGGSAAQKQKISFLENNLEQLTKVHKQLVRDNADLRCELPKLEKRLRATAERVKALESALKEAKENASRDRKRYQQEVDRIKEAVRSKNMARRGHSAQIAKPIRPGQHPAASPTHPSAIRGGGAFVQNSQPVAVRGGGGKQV
Assay: single-molecule colocalisation on microtubules

B1: TRAK1^1-532 (domain or fragment, human, UniProt Q9UPV9 1-532, looked up)
chain: MALVFQFGQPVRAQPLPGLCHGKLIRTNACDVCNSTDLPEVEIISLLEEQLPHYKLRADTIYGYDHDDWLHTPLISPDANIDLTTEQIEETLKYFLLCAERVGQMTKTYNDIDAVTRLLEEKERDLELAARIGQSLLKKNKTLTERNELLEEQVEHIREEVSQLRHELSMKDELLQFYTSAAEESEPESVCSTPLKRNESSSSVQNYFHLDSLQKKLKDLEEENVVLRSEASQLKTETITYEEKEQQLVNDCVKELRDANVQIASISEELAKKTEDAARQQEEITHLLSQIVDLQKKAKACAVENEELVQHLGAAKDAQRQLTAELRELEDKYAECMEMLHEAQEELKNLRNKTMPNTTSRRYHSLGLFPMDSLAAEIEGTMRKELQLEEAESPDITHQKRVFETVRNINQVVKQRSLTPSPMNIPGSNQSSAMNSLLSSCVSTPRSSFYGSDIGNVVLDNKTNSIILETEAADLGNDERSKKPGTPGTPGSHDLETALRRLSLRRENYLSERRFFEEEQERKLQELAEKGE
modifications: LD555 dye on the SNAP tag (imaging assays)
B1: binds.
